Where no end group is shown, it is not given here. [ ]: non-standard residue; d: D form. pS = N[C@@H](COP(=O)(O)O)C(=O)O

In the assay the target is T1, HLA-A*02:01 (human).
T1 construct: Peptide-receptive HLA-A*02:01 monomer obtained by UV cleavage of a UV-sensitive ligand; captured on streptavidin plates; also called peptide-receptive MHC molecules; MHC class I
As to the kind of experiment: UV-ligand exchange, anti-b2m ELISA; grade of peptide exchange yield (>10% = +; >20% = ++; >50 = +++; >75% = ++++). The source says: Candidate peptides for T cell based therapies according to the present invention were further tested for their MHC binding capacity (affinity). The individual peptide-MHC complexes were produced by UV-ligand exchange, where a UV-sensitive peptide is cleaved upon UV-irradiation, and exchanged with the peptide of interest as analyzed. Only peptide candidates that can effectively bind and stabilize the peptide-receptive MHC molecules prevent dissociation of the MHC complexes. To determine the yield of the exchange reaction, an ELISA was performed based on the detection of the light chain (β2m) of stabilized MHC complexes. The assay was performed as generally described in Rodenko et al. (Rodenko et al., 2006).
96 well MAXISorp plates (NUNC) were coated over night with 2 ug/ml streptavidin in PBS at room temperature, washed 4× and blocked for 1 h at 37° C. in 2% BSA containing blocking buffer. Refolded HLA-A*02:01/MLA-001 monomers served as standards, covering the range of 15-500 ng/ml. Peptide-MHC monomers of the UV-exchange reaction were diluted 100-fold in blocking buffer. Samples were incubated for 1 h at 37° C., washed four times, incubated with 2 ug/ml HRP conjugated anti-β2m for 1 h at 37° C., washed again and detected with TMB solution that is stopped with […]. Absorption was measured at 450 nm. Candidate peptides that show a high exchange yield (preferably higher than 50%, most preferred higher than 75%) are generally preferred for a generation and production of antibodies or fragments thereof, and/or T cell receptors or fragments thereof, as they show sufficient avidity to the MHC molecules and prevent dissociation of the MHC complexes.
(In general: ELISA stands for enzyme-linked immunosorbent assay.)

Consider AQLNLIWQL, for which the peptide exchange yield is above 75%.

For GLYGIKDDVFL, the peptide exchange yield was above 75%.

ALWGFFPVLL gave a peptide exchange yield above 75%.

For the molecule ALASAPTSV, the peptide exchange yield was above 75%.

Molecule QLIEKITQV registered a peptide exchange yield of 50 to 75%.

STASAITPSV gave a peptide exchange yield of 20 to 50%.

Molecule MLFENMGAYTV came in with a peptide exchange yield above 75%.

With ALMAGCIQEA, the peptide exchange yield was above 75%.

On to TLNDGVVVQV, for which the peptide exchange yield was above 75%.

As to FLFPAFLTA, the peptide exchange yield is above 75%.

Take VLYGDVEEL: the peptide exchange yield was 50 to 75%.

As for VLDEGLTSV, the peptide exchange yield is above 75%.

LMAPAPSTV had a peptide exchange yield of 50 to 75%.

Consider SLFPYVVLI, for which the peptide exchange yield was above 75%.

ALMDEINFMKM had a peptide exchange yield above 75%.

The molecule ALPEPSPAA returned a peptide exchange yield of 50 to 75%.

In the case of TLLSEIAEL, the peptide exchange yield is above 75%.

Consider QLLQYVYNL, for which the peptide exchange yield is above 75%.

In turn, ILFDEVLTFA gave a peptide exchange yield above 75%.

For VLAENPDIFAV, the peptide exchange yield fell in the range of 50 to 75%.

Molecule AQLNIGNVLPV registered a peptide exchange yield above 75%.

Take GLHQDFPSVVL: the peptide exchange yield is 50 to 75%.

In turn, KILE[pS]LFV[pS]L [KILEJLFVJL] gave a peptide exchange yield of 50 to 75%.

Turning to YVMESMTYL, the peptide exchange yield is above 75%.

SLQERQVFL gave a peptide exchange yield of 50 to 75%.

SLRAFLMPI returned a peptide exchange yield of 20 to 50%.

With SLDGNPLAV, the peptide exchange yield was above 75%.

ALEEANADLEV: the peptide exchange yield is 50 to 75%.

The molecule KILEMDDPRA registered a peptide exchange yield of 20 to 50%.

Molecule YIDPYKLLPL yielded a peptide exchange yield of 50 to 75%.

Source of the values: patent US20200155602A1 (IMMATICS BIOTECHNOLOGIES, published 2020).
